Measured values: the supplement of paper PMC9233669
Variants at the floor of the assay were thinned out.

Experiments:
biotinyl-Ile-oxazolone = assay: self-aminoacylation, catalytic enhancement (BIO) (fold over background); higher = more active; k-Seq, kA / k0A0; sequences stand for … in GGGAAUGGAUCCACAUCUACGAAUUC…UUCACUGCAGACUUGACGAAGCUG
In short: (§1)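 The uncatalyzed rate is the low-activity peak of a bimodal Gaussian fit, and catalytic enhancement is median kA divided by it. The kA values came from pseudo-first-order fits, with 1000 bootstraps, of per-sequence fraction reacted measured by streptavidin capture, triplicate qPCR and Illumina sequencing. Mutagenized RNA pools with a 21-nt variable region (0.43 μM) were reacted with each biotinyl-aminoacyl-oxazolone at 2–1250 μM in 50 μL HEPES/NaCl/KCl/MgCl2/CaCl2 buffer with 5% acetonitrile, pH 6.9–7.0, for 90 minutes at room temperature.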

biotinyl-Leu-oxazolone = assay: self-aminoacylation, catalytic enhancement (BLO) (fold over background); higher = more active; k-Seq, kA / k0A0; sequences stand for … in GGGAAUGGAUCCACAUCUACGAAUUC…UUCACUGCAGACUUGACGAAGCUG
In short: as §1

biotinyl-Val-oxazolone = assay: self-aminoacylation, catalytic enhancement (BVO) (fold over background); higher = more active; k-Seq, kA / k0A0; sequences stand for … in GGGAAUGGAUCCACAUCUACGAAUUC…UUCACUGCAGACUUGACGAAGCUG
In short: as §1

biotinyl-Met-oxazolone = assay: self-aminoacylation, catalytic enhancement (BMO) (fold over background); higher = more active; k-Seq, kA / k0A0; sequences stand for … in GGGAAUGGAUCCACAUCUACGAAUUC…UUCACUGCAGACUUGACGAAGCUG
In short: as §1

biotinyl-Phe-oxazolone = assay: self-aminoacylation, catalytic enhancement (BFO) (fold over background); higher = more active; k-Seq, kA / k0A0; sequences stand for … in GGGAAUGGAUCCACAUCUACGAAUUC…UUCACUGCAGACUUGACGAAGCUG
In short: as §1

biotinyl-Trp-oxazolone = assay: self-aminoacylation, catalytic enhancement (BWO) (fold over background); higher = more active; k-Seq, kA / k0A0; sequences stand for … in GGGAAUGGAUCCACAUCUACGAAUUC…UUCACUGCAGACUUGACGAAGCUG
In short: as §1

Row | Sequence | self-aminoacylation (biotinyl-Ile-oxazolone) | self-aminoacylation (biotinyl-Leu-oxazolone) | self-aminoacylation (biotinyl-Val-oxazolone) | self-aminoacylation (biotinyl-Met-oxazolone) | self-aminoacylation (biotinyl-Phe-oxazolone) | self-aminoacylation (biotinyl-Trp-oxazolone)
1 | AUAACCCUGGGCAUCGAGUGA [Fam2.1 aminoacylation ribozyme variant] | 3 | 6 | 2.59 | 5.93 | 33.7 | 6.57
2 | AUAACCCUGGUCACCGAGUGA [Fam2.1 aminoacylation ribozyme variant] | 4.78 | 9.68 | 4.06 | 8.82 | 44 | 10.2
3 | AUAACCCUGGUCAUCGAGUGA [Fam2.1 aminoacylation ribozyme variant] | 8.43 | 18.8 | 8.59 | 19.7 | 69.1 | 18.7
4 | AUAACCCUGGUGAUCGAGUGA [Fam2.1 aminoacylation ribozyme variant] | 3.03 | 6.37 | 3.03 | 6.53 | 36.3 | 7.08
5 | AUAACCCUGUUCAUCGAGUGA [Fam2.1 aminoacylation ribozyme variant] | 2.21 | 3.97 | 2.18 | 3.8 | 12.6 | 4.29
6 | AUACACCAAGGUCAUCGGGUG [Fam2.2 aminoacylation ribozyme variant] | 4.48 | 6.13 | 3.5 | 4.18 | 42.2 | 6.72
7 | AUACACCUAGGUCAUCGCGUG [Fam2.2 aminoacylation ribozyme variant] | 4.68 | 10.4 | 5.01 | 8.65 | 69.7 | 8.07
8 | AUACACCUAGGUCAUCGGGUA [Fam2.2 aminoacylation ribozyme variant] | 4.01 | 6.85 | 4.43 | 5.4 | 8.32 | 5.56
9 | AUACACCUAGGUCAUCGGUUG [Fam2.2 aminoacylation ribozyme variant] | 1.1 | 1.31 | 1.24 | 1.44 | 3.92 | 1.54
10 | AUACACCUAGGUGAUCGGGUG [Fam2.2 aminoacylation ribozyme variant] | 3.87 | 3.88 | 2.6 | 3.56 | 16.4 | 4.59
11 | AUACACGUAGGUCAUCGGGUG [Fam2.2 aminoacylation ribozyme variant] | 2.19 | 3.2 | 2.67 | 3.63 | 17.3 | 3.2
12 | AUACAGCUAGGUCAUCGGGUG [Fam2.2 aminoacylation ribozyme variant] | 3.25 | 4.04 | 3.09 | 2.96 | 25.1 | 3.64
13 | AUACCCCUAGGUCAUCGGGUG [Fam2.2 aminoacylation ribozyme variant] | 5.22 | 10.7 | 5.95 | 8.28 | 71.2 | 7.88
14 | AUACCCCUGGUCAUCGAGUGA [Fam2.1 aminoacylation ribozyme variant] | 3.42 | 5.62 | 2.88 | 6.17 | 7.63 | 7.04
15 | AUACUUCAAACAAUCGGUCAG [Fam1A.1 aminoacylation ribozyme variant] | 0.82 | 0.728 | 0.891 | 0.672 | 3.2 | 1.88
16 | AUAUCCCUGGUCAUCGAGUGA [Fam2.1 aminoacylation ribozyme variant] | 5.36 | 9.81 | 5.25 | 10.3 | 10.5 | 11.8
17 | AUCACACUGGUCAUCGAGUGA [Fam2.1 aminoacylation ribozyme variant] | 4.41 | 6.47 | 4.06 | 6.51 | 42.5 | 8.95
18 | AUCACCCUGCUCAUCGAGUGA [Fam2.1 aminoacylation ribozyme variant] | 1.57 | 2.67 | 1.9 | 2.48 | 19.1 | 3.44
19 | AUCACCCUGGCCAUCGAGUGA [Fam2.1 aminoacylation ribozyme variant] | 3.91 | 6.04 | 3.96 | 6.12 | 32 | 7.58
20 | AUCACCCUGGUCAGCGAGUGA [Fam2.1 aminoacylation ribozyme variant] | 4.13 | 8.3 | 4.3 | 8.22 | 38.2 | 10.5
21 | AUCACCCUGGUCAUCGAGUGG [Fam2.1 aminoacylation ribozyme variant] | 4.14 | 12.7 | 5.02 | 10.3 | 41.8 | 10.2
22 | AUCACCCUGGUCAUCGCGUGA [Fam2.1 aminoacylation ribozyme variant] | 12.1 | 36.4 | 17.1 | 33.9 | 215 | 33.8
23 | AUCACCCUGUUCAUCGAGUGA [Fam2.1 aminoacylation ribozyme variant] | 2.85 | 5.15 | 2.78 | 4.68 | 30 | 5.52
